Laboratory results published in US20250171512A1.
Positions count from the first letter of the chain named. Names and notes keep the numbering of the source. One block for each binder: values may come before it.

Target: human FGFR1c together with human beta-Klotho (KLB), stably expressed on CHO Flp-In cells (human), P11362
Assay: cell-based or functional assay

Sequence of human FGFR1c together with human beta-Klotho (KLB), stably expressed on CHO Flp-In cells (human), P11362 (P11362 22-822, chain 1 of 2): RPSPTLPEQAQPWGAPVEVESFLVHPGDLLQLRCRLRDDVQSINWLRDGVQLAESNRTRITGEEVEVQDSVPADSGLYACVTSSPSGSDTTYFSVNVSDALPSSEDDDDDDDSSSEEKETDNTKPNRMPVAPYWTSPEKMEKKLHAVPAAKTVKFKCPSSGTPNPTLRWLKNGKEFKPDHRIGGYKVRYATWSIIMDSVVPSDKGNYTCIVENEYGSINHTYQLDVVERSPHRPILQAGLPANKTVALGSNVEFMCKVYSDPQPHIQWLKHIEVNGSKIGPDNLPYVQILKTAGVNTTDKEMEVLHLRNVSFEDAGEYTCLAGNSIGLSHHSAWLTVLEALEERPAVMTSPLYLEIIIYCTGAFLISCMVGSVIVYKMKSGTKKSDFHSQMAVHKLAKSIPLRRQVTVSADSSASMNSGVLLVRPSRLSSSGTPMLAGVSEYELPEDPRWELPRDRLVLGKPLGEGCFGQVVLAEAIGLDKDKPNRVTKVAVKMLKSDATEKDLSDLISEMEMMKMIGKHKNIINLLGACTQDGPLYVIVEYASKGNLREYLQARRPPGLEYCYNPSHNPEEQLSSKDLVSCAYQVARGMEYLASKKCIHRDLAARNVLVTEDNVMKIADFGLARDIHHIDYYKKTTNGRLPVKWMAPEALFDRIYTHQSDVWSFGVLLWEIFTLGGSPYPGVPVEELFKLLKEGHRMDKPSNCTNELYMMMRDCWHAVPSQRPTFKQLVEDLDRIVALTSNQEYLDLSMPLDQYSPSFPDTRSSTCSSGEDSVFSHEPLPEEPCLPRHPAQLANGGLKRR
Sequence of human FGFR1c together with human beta-Klotho (KLB), stably expressed on CHO Flp-In cells (human), P11362 (Q86Z14 whole entry, chain 2 of 2, further chain): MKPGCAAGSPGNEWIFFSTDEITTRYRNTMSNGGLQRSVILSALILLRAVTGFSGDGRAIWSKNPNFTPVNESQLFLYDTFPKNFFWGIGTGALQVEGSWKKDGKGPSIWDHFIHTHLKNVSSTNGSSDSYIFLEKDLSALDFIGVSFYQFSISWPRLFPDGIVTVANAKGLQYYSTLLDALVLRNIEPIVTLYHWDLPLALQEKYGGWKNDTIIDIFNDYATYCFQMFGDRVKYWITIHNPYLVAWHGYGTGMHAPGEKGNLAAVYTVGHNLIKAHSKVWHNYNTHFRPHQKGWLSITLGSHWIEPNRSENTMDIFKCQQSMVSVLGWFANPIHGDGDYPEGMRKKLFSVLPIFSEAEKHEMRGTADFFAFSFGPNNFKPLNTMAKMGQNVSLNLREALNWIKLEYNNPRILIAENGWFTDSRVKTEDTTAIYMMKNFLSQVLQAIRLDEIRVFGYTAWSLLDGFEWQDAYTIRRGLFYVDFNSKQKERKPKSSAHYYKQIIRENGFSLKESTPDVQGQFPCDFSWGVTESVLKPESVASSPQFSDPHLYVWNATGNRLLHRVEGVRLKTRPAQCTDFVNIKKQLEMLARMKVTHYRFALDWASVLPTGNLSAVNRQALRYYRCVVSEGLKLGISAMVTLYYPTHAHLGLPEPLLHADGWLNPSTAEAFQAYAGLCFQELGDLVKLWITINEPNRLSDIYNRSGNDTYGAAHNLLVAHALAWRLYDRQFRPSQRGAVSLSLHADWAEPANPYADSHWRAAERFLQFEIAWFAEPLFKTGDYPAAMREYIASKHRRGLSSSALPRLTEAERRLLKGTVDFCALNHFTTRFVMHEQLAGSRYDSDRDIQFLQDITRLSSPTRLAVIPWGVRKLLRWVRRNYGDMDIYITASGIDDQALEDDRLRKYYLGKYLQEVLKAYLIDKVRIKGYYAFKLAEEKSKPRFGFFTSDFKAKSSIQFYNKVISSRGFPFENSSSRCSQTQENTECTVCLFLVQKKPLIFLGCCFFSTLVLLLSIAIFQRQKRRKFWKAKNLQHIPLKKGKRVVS

pERK ICW EC50: 0.28 nmol/L
B1: FGF21 N149-D155 deleted and replaced by GSGS (SEQ ID NO: 143), Q9NSA1 29-209 (ligand)
chain: GHPIPDSSPLLQFGGQVRQRYLYTDDAQQTEAHLEIREDGTVGGAADQSPESLLQLKALKPGVIQILGVKTSRFLCQRPDGALYGSLHFDPEACSFRELLLEDGYNVYQSEAHGLPLHLPGGSGSPAPRGPARFLPLPGLPPAPPEPPGILAPQPPDVGSSDPLSMVGPSQGRSPSYAS

pERK ICW EC50: 0.02 nmol/L
B2: FGF21 N149-D155 deleted and replaced by ATTS (SEQ ID NO: 145), Q9NSA1 29-209 (ligand)
chain: B1 chain with G122A, S123T, G124T

pERK ICW EC50: 0.1 nmol/L
B3: FGF21 N149-D155 deleted and replaced by GSHSG (SEQ ID NO: 144), Q9NSA1 29-209 (ligand)
chain: GHPIPDSSPLLQFGGQVRQRYLYTDDAQQTEAHLEIREDGTVGGAADQSPESLLQLKALKPGVIQILGVKTSRFLCQRPDGALYGSLHFDPEACSFRELLLEDGYNVYQSEAHGLPLHLPGGSHSGPAPRGPARFLPLPGLPPAPPEPPGILAPQPPDVGSSDPLSMVGPSQGRSPSYAS

pERK ICW EC50: 0.39 nmol/L
B4: FGF21 R163H (SEQ ID NO: 141), Q9NSA1 29-209 (ligand)
chain: GHPIPDSSPLLQFGGQVRQRYLYTDDAQQTEAHLEIREDGTVGGAADQSPESLLQLKALKPGVIQILGVKTSRFLCQRPDGALYGSLHFDPEACSFRELLLEDGYNVYQSEAHGLPLHLPGNKSPHRDPAPRGPAHFLPLPGLPPAPPEPPGILAPQPPDVGSSDPLSMVGPSQGRSPSYAS

pERK ICW EC50: 0.84 nmol/L
B5: FGF21 P158H, R159H (SEQ ID NO: 142), Q9NSA1 29-209 (ligand)
chain: B4 chain with P131H, R132H, H136R
